Experimental data published in article PMC6327041 (Nature Communications, 2019).
Where a chain is given by its changes, count along the chain named. Where two headings read alike, the source gives them in different places.

Experiments:
[1] = molecular target: T1, S287-K347 PHD1 (KDM5A, GST-PHD1) (Homo sapiens, UniProt P29375); assay: Fluorescence polarization binding to PHD1 S287-K347
T1 construct: Expression of GST-PHD1 (Ser287-Lys347); GST (N); made in house; host or cells: E. coli BL21(DE3)
T1 sequence (P29375 287-347): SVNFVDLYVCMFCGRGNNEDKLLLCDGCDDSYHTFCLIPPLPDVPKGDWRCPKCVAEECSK
Protocol: (§1) All PHD1 constructs used (Val291-[…], S287-K347, and S287-K347 D292A) (Supplementary Figure 1) were cloned into a pET41a vector and expressed in BL21(DE3) E. coli cells. Expression and purification of all mutants followed the same protocol. Specifically, cells were induced with 0.4 mM IPTG and grown at 18 °C overnight before the pellet was collected. The cells were resuspended in lysis buffer (140 mM NaCl, 2.7 mM KCl, 10 mM Na2HPO4, 1.8 mM KH2PO4, 0.5 mM TCEP, 50 µM ZnCl2, 1 mM phenylmethylsulfonyl fluoride (PMSF), pH 7.3), lysed by sonication and centrifuged. The supernatant was purified using Glutathione Sepharose 4B resin, washed with high salt buffer (50 mM HEPES, 700 mM KCl, 10% glycerol, 0.5 mM TCEP, […], 1 mM PMSF, pH 8) and low salt buffer (50 mM HEPES, 150 mM KCl, 10% glycerol, 0.5 mM TCEP, […], 1 mM PMSF, pH 8) and recovered by elution using low salt buffer with 30 mM glutathione. The sample was then concentrated and further purified by size-exclusion chromatography using a Hiload 26/60 Superdex 75 gel filtration column. Samples were eluted into 40 mM HEPES, 50 mM KCl, 0.5 mM TCEP, and […] and flash-frozen.
Data from direct FP measurements were fitted to equation 1: FPobs=FPmaxPHD1+FPminKd/Kd+[PHD1]
Data from competition-based FP assays were fitted to equation 2: FPobs=KiFPmaxPHD1+FPminKd+FPminKd[I]/KiKd+[PHD1]+Kd[I] where FPobs is the observed FP, FPmax is the maximum FP value, FPmin is the minimum FP value, [PHD1] is concentration of PHD1, Kd is the dissociation constant, Ki is the inhibition constant referring to the competing peptide and [I] is the competing peptide concentration.

[2] = molecular target: T2, KDM5A1-797 (Homo sapiens, UniProt P29375); assay: KDM5A demethylation, FDH-coupled formaldehyde release assay; type: biochemical; details: for kcat / Km: 1 μM KDM5A, pH 7.5, room temperature, n ≥ 3, s.e.m.; for Km: read-out: Km
T2 construct: KDM5A1-797 was cloned into a pFASTBAC HTA vector; His (N, cleaved yes); made in house; host or cells: Sf21 insect cells (baculovirus)
T2 sequence (P29375 1-797): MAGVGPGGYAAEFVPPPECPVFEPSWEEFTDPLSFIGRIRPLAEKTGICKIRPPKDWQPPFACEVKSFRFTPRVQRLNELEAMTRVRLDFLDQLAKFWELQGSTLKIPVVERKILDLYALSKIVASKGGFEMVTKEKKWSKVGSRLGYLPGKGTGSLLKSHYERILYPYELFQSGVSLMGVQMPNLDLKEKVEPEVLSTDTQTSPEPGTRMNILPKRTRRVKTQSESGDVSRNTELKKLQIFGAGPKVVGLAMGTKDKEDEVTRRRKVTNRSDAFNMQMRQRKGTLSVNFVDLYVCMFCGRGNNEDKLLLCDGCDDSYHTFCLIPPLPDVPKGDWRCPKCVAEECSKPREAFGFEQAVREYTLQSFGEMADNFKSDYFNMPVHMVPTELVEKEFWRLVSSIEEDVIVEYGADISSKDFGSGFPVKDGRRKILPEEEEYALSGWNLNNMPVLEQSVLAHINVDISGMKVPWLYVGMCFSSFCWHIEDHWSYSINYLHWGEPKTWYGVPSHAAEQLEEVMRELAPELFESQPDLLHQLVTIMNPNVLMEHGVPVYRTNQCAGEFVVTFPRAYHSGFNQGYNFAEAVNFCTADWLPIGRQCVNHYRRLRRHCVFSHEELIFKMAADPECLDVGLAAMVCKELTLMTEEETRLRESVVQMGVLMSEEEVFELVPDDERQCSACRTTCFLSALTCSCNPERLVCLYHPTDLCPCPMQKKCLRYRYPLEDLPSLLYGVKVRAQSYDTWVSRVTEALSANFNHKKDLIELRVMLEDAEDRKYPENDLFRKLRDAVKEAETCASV
Protocol: WT KDM5A1-797 was expressed in Sf21 cells following Invitrogen Bac-to-Bac baculovirus expression system protocol. KDM5A1-797 was cloned into a pFASTBAC HTA vector. Purified bacmid was transfected in Sf21 cells. Approximately […] cells per well of a six-well dish were allowed to attach in 2 ml of SF-900 II SFM media containing 50 U ml^−1 penicillin and 50 μg ml^−1 streptomycin. While cells attached, 8 μl of Cellfectin II reagent (Invitrogen) in 100 μl of unsupplemented Grace’s medium was mixed with ~2–5 μg of bacmid in 100 μl of unsupplemented Grace’s medium and incubated for 15–30 min at 25 °C. Once cells were attached, media was removed and cells were washed with 2 ml of Grace’s unsupplemented media. The bacmid DNA:Cellfectin mixture was then diluted to 1 ml with Grace’s unsupplemented media and added to the well. Cells with bacmid:Cellfectin II mixture were incubated for 5 h at 27 °C. After 5 h of incubation, bacmid:Cellfectin mixture was removed and replaced with 2 ml of SF-900 II SFM 50 U ml^−1 penicillin and 50 μg ml^−1 streptomycin. Transfected cells were incubated 3–5 days or until signs of viral infection were observed. After transfection, the supernatant was spun down to remove the dead cells. The supernatant was then sterile filtered to obtain the P1 viral stock. To make P2, 20 ml of […] at ~2 × 10^6 cells per ml of sf21 was infected with 2 ml of P1 virus and incubated for 48–60 h. After 56 h, the cells were spun down and the supernatant was collected and sterile filtered to obtain P2 viral stock. Similarly, P3 viral stock from P2 viral stock was obtained. Generally, 1 l of Sf21 at 2 × 10^6 cells per ml was infected with ~40 ml of P3 virus for ~48–56 h. Cells were then collected and resuspended in the lysis buffer (25 mM HEPES pH 7.9, 350 mM NaCl, 5 mM KCl, 1.5 mM MgCl2, 10 mM imidazole, aprotinin 2 μg ml^−1, leupeptin 3 μg ml^−1, pepstatin 3 μg ml^−1, and 1 mM PMSF). Cells were homogenized by emulsiflex. After lysis, the supernatant was recovered by centrifuging at 35k r.p.m. for 45 min, and incubated with cobalt resin equilibrated in lysis buffer for 1 h at 4 °C. After incubation the resin was washed with wash buffer (25 mM HEPES, pH 7.9, 350 mM NaCl, 0.5 mM MgCl2, 10% glycerol, 10 mM imidazole, aprotinin 2 μg ml^−1, leupeptin 3 μg ml^−1, pepstatin 3 μg ml^−1, and 1 mM PMSF). His-KDM5A was eluted with elution buffer (25 mM HEPES pH 7.9, 100 mM NaCl, 0.5 mM MgCl2, 10% glycerol, 100 mM imidazole, aprotinin 2 μg ml^−1, leupeptin 3 μg ml^−1, pepstatin 3 μg ml^−1, and 1 mM PMSF). The His-tag was removed by overnight incubation with TEV protease at 4 °C in the dialysis buffer (25 mM HEPES, pH 7.9, 100 mM NaCl, and 2 mM DTT). After cleavage, protein was further purified by size-exclusion chromatography using a S200 column. Purified KDM5A was eluted, aliquoted and stored at −80 °C in 40 mM HEPES, pH 7.9, 50 mM KCl.
Michaelis–Menten parameters were determined using Graphpad Prism.

[3] = molecular target: T3, S287-K347 PHD1 D292A (KDM5A, GST-PHD1) (Homo sapiens, UniProt P29375, D292A); assay: Fluorescence polarization binding to PHD1 S287-K347 D292A; details: compared to WT PHD1S287-K347
T3 construct: S287-K347, and S287-K347 D292A; GST (N); made in house; host or cells: E. coli BL21(DE3)
T3 sequence (P29375 287-347 D292A): T1 sequence (P29375 287-347) with D6A
Protocol: as §1
Data from direct FP measurements were fitted to equation 1: FPobs=FPmaxPHD1+FPminKd/Kd+[PHD1] […]

[4] = tested on: PHD1KDM5B; details: cited from earlier work
Source text: This study presents a significant amount of biochemical and biophysical work to reveal the molecular basis underlying the allosteric enhancement in a quantitative manner. […] H ...

Compound: Ac-H3K4me2 21mer: N-terminally acetylated 21mer H3K4me2 peptide (Ala1-Ala21)
- binding to PHD1 domain ([1]; FP, at the concentrations used in our assays (Supplementary Figure 3a: Ac-H3K4me2-FAM, PHD1S287-K347)): does not bind to the PHD1 domain
- reduction in Km on addition of effector peptide ([2]; 38 µM H3 10mer effector peptide vs none): fivefold
- kcat/Km ([2]; +H3 10mer peptide (38 µM)): 427 ± 95 M⁻¹ s⁻¹
- kcat ([2]; +H3 10mer peptide (38 µM)): 0.0233 ± 0.001 s⁻¹
- Km ([2]; +H3 10mer peptide (38 µM)): 54.7 ± 9.9 µM
- kcat/Km ([2]; No effector peptide): 98 ± 34 M⁻¹ s⁻¹
- kcat ([2]; No effector peptide): 0.0225 ± 0.00183 s⁻¹
- Km ([2]; No effector peptide): 229 ± 60 µM

Compound: H3K4me0: C-terminal fluorescently labeled unmodified H3 10mer peptide, affinity by direct FP
- preference for WT H3 peptide over H3K4A peptide ([1]; ratio of Kd): 2.3 fold
- decrease in affinity, D292A vs WT PHD1S287-K347 ([3]; listed as H3 peptide): 7.6 fold
- decrease in affinity, D292A vs WT PHD1S287-K347 ([3]; listed as unmodified H3 peptide): approximately eightfold
- decrease in affinity for H3 peptide on mutation of the analogous Asp in KDM5B PHD1 ([4]; PHD1KDM5B Asp mutant vs WT, ref Klein Cell Rep 2014 and Zhang Protein Cell 2014): approximately 6 fold
- discrimination of WT H3 over H3K4A peptide ([4]; PHD1KDM5B): 2.5 fold

Compound: C[C@H](N)C(=O)N[C@@H](C)C(=O)N[C@H](C(=O)N[C@@H](CCCCN)C(=O)N[C@@H](CCC(N)=O)C(=O)N[C@H](C(=O)N[C@@H](C)C(=O)N[C@@H](CCCNC(=N)N)C(=O)N[C@@H](CCCCN)C(=O)N[C@@H](CO)C(=O)O)[C@@H](C)O)[C@@H](C)O [H3R2A]
- Kd ([1]; modified H3 10mer N-terminal peptides, competition-based FP, NB = no binding, n ≥ 3, s.e.m., construct not stated in legend, read-out: PHD1 binding Kd (Fig. 4a)): 205 ± 73 µM
